What all share (assay): pull-down
Assay [1] addresses EGFP-tagged NHSL1-F1 with all 11 EndoA2 binding sites and both FP4 motifs mutated (human).
Assay [2] concerns the target EGFP-tagged NHSL1-F1 with all 11 EndoA2 binding sites mutated (human).
In assay [3] the target is EGFP-tagged NHSL1-F1 with both FP4 motifs mutated (human).
The target in assay [4] is EGFP-tagged NHSL1-F1 with the 9 EndoA2 sites that do not bind Abi mutated (human).
The target in assay [5] is EGFP-tagged NHSL1-F1 with the two Abi binding sites mutated (human).

For one substance, fold reduction in binding against wild-type NHSL1 results are on record in article doi:10.1101/2024.10.23.619882.

Consider “Myc-tagged wild-type EndoA2 (endophilin A2) (from UniProt O35964 1-368) (natural protein)”, for which the fold reduction in binding against wild-type NHSL1 was 5 fold in assay [1]; 5 fold in assay [2]; 2 fold in assay [3]; 5 fold in assay [4]; 5 fold in assay [5].
